Biological target: Fluorogenic peptide Dabcyl-…-Edans, EV71 polyprotein autoprocessing site between 3B and 3C (human enterovirus 71)

Q: How did the Km of cleavage of the fluorogenic 3B-3C peptide (protease assay, 4 μM protease) turn out when EV71 3C protease mutant H133G (enzyme) was run?
A: Its Km of cleavage of the fluorogenic 3B-3C peptide (protease assay, 4 μM protease) is 25.9 µM.

Source: PMC7094522
